Changes are numbered by the printed parent chain. Numbers in names are those of the source.
T1: primary soluble TL1A produced from an activated human PBMC (human, UniProt O95150 72-251, limits assumed)
T1 sequence (looked up): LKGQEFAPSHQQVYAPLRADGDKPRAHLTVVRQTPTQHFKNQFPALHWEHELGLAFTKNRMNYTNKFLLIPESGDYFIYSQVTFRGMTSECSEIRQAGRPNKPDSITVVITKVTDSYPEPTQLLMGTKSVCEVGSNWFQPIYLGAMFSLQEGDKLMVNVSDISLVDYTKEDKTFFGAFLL

T2: primary soluble FasL produced from human T cells stimulated for AICD (human, UniProt P48023 130-281, limits assumed)
T2 construct: also called soluble FasL derived from human T cells
T2 sequence (looked up): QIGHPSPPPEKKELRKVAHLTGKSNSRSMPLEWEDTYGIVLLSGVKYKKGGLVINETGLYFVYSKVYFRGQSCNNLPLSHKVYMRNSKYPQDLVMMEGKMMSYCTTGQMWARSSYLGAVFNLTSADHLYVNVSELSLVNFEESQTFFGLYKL

T3: Human His6 Fas Ligand/TNFSF6 (Cell Signaling Technology, Inc.) (human, UniProt P48023 133-281)
T3 construct: Bought; confirmed as a trimer by SEC-MALS; also called recombinant human His6 Fas Ligand; soluble human FasL trimer
T3 sequence: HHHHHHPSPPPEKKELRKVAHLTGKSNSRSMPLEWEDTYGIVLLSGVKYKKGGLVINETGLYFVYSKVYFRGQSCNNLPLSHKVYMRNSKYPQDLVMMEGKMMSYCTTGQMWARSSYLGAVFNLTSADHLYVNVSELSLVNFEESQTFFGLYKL

T4: membrane-bound human TL1A (Met and FLAG tag at the N-terminus) on CHO-K1 cells (human, UniProt O95150 2-251)
T4 construct: also called TL1A/CHO
T4 sequence: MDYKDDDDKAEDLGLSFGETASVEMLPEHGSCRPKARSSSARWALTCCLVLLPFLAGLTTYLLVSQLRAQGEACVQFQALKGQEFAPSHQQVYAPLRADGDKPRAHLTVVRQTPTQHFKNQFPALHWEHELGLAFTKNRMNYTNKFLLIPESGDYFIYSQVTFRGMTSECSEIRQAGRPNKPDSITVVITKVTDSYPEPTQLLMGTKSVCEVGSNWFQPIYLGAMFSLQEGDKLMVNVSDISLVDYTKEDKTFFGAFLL

B1: chimera A-Fc (Eg1S YTE) (Fc fusion)
chain: ETFPPKYLHYDEETSHQLLCDKCPPGTYLKQHCTAKWKTVCAPCPPRHYTQFWNYLERCRYCNVLCGEREEEARACHATHNRACRCRTGFFAHAGFCLEHASCPPGAGVIAPGTPSQNTQCQPCPDGFFSNETSSKAPCRKHTNCSVFGLLLTQKGNATHDNICSGNSESTQKEPKSSDKTHTCPPCPAPELLGGPSVFLFPPKPKDTLYITREPEVTCVVVDVSHEDPEVKFNWYVDGVEVHNAKTKPREEQYNSTYRVVSVLTVLHQDWLNGKEYKCKVSNKALPAPIEKTISKAKGQPREPQVYTLPPSRDELTKNQVSLTCLVKGFYPSDIAVEWESNGQPENNYKTTPPVLDSDGSFFLYSKLTVDKSRWQQGNVFSCSVMHEALHNHYTQKSLSLSPGK
B2: chimera A-E57K_R58E-Fc (Eg1S LALAGANA) (Fc fusion)
chain: B1 chain with E57K, R58E, L192A, L193A, G195A, Y210M, T212S, E214T, N392A
B3: chimera A-Fc (Eg1S LALAGANA) (Fc fusion)
chain: B1 chain with L192A, L193A, G195A, Y210M, T212S, E214T, N392A
B4: chimera A-E57K-Fc (Eg1S YTE) (Fc fusion)
chain: B1 chain with E57K
B5: chimera A-E57K-Fc (Eg1S LALAGANA) (Fc fusion)
chain: B1 chain with E57K, L192A, L193A, G195A, Y210M, T212S, E214T, N392A
B6: chimera A-E57K_R58E-Fc (Eg1S YTE) (Fc fusion)
chain: B1 chain with E57K, R58E
notes: also called 45-18-Fc (Eg1S YTE)

These binders were tested against T1, primary soluble TL1A produced from an … (assay: sandwich ELISA, binder captured).
Procedure: (§1) Then, 10 μg/mL of anti-human IgG antibodies (American Qualex International, Inc.) were immobilized to a 96-well immunoplate (Thermo Scientific), and blocking was performed with 2% Block Ace (DS Pharma Biomedical Co., Ltd.), and then 2 μg/mL of chimera A-Fc, E57K-Fc and 45-18-Fc (in all of which Fc is Eg1S YTE or Eg1S […]) were captured. The culture supernatant of human T cells stimulated for LIGHT production was concentrated 6-fold using Amicon Ultra-15 having a molecular weight cutoff of 3 kDa (Merck Millipore) prerinsed with sterile water. After the plate was washed, the 6-fold concentrated culture supernatant was reacted. As a standard of LIGHT, the soluble recombinant FLAG-LIGHT trimer produced in Example 13 was used. After the plate was washed, a biotinylated anti-LIGHT antibody (R&D Systems, Inc.) was reacted. After the plate was washed, streptavidin-HRP (PIERCE) was reacted. After washing again, a TMB solution (Dako) was added to develop a color. Then, a 2 N sulfuric acid solution was used to stop the chromogenic reaction, and the absorbance at 450 nm (reference wavelength of 570 nm) was measured.
(§2) Sandwich ELISA was performed by the same method as in (1). On a 96-well immunoplate, chimera A-Fc, E57K-Fc and 45-18-Fc (in all of which Fc is Eg1S YTE or Eg1S […]) or the anti-human TL1A antibody produced in Example 16 was captured. Then, with the plate, a 4-fold concentrated culture supernatant of PBMCs stimulated for TL1A production or as a standard, the soluble recombinant His6-TL1A trimer produced in Example 13 was reacted, followed by detection with a biotinylated anti-TL1A antibody (R&D Systems, Inc.).
(§3) Sandwich ELISA was performed by the same method as in (1). On a 96-well immunoplate, chimera A-Fc, E57K-Fc and 45-18-Fc (each including Eg1S YTE or Eg1S […] as an Fc) or Fas-Fc (R&D Systems, Inc.) was captured, and then a 6-fold concentrated culture supernatant of human T cells stimulated for AICD or as a standard, Human His6 Fas Ligand/TNFSF6 (Cell Signaling Technology, Inc.) was reacted, followed by detection with a biotinylated anti-FasL antibody included with Human Fas Ligand ELISA Kit (Abcam plc).

| binding result | Binder |
| --- | --- |
| binds | B1 |
| binds | B2 |
| binds | B3 |
| binds | B4 |
| binds | B5 |
| binds | B6 |

What follows are binders tested against primary soluble LIGHT produced from activated human T cells (human, UniProt O43557 83-240, limits assumed) (assay: sandwich ELISA, binder captured).
Sequence of primary soluble LIGHT produced from activated human T cells (O43557 83-240 limits assumed): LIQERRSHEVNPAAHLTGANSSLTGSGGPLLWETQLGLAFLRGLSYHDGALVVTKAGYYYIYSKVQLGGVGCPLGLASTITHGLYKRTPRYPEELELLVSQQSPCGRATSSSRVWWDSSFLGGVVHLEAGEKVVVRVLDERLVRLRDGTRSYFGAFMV
Procedure: as §1, §2, §3

| binding result | Binder |
| --- | --- |
| binds | B1 |
| binds | B2 |
| binds | B3 |
| binds | B4 |
| binds | B5 |
| binds | B6 |

Each binder was assayed against T2, primary soluble FasL produced from … (assay: sandwich ELISA, binder captured).
Procedure: as §1, §2, §3

| binding result | Binder |
| --- | --- |
| binds | B1 |
| binds | B2 |
| binds | B3 |
| binds | B4 |
| binds | B5 |
| binds | B6 |

Each binder was assayed against T3, Human His6 Fas Ligand/TNFSF6 (Cell …) (assay: SPR, binder captured on Protein A chip).
Method in brief: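 DcR3 variants were captured on a Protein A chip in HBS-EP+, with human or cynomolgus ligand trimers injected as analyte at 0.08–20 nmol/L and 30 μL/min. LIGHT, TL1A and cynomolgus trimers had 2 min association and 5 min dissociation; human FasL had 1 min and 3 min. Surfaces were regenerated with 3 mol/L MgCl2.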

| binding result | Binder |
| --- | --- |
| binds | B1 |
| binds | B2 |
| binds | B3 |
| binds | B4 |
| binds | B5 |
| binds | B6 |

These binders were tested against T4, membrane-bound human TL1A (Met and FLAG …) (assay: flow cytometry on expressing cells).
Method in brief: (§4)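 Binding was measured by flow cytometry on HEK293 cells forced to express membrane-bound LIGHT and on cell lines expressing N-terminally Met/FLAG-tagged TL1A or FasL from a CMV-promoter pClpuro vector. Cells at 1×10⁵ cells/well received 1 or 10 μg/mL protein on ice for 1 hour. After washing, cells were stained on ice for 1 hour with LIVE/DEAD Fixable Aqua and R-phycoerythrin goat F(ab′)₂ anti-human IgG (10 ng/mL, 0.1 or 1 μg/mL). Fluorescence was read on a FACS Fortessa.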

| binding result | Binder |
| --- | --- |
| binds | B1 |
| binds | B2 |
| binds | B3 |
| binds | B4 |
| binds | B5 |
| binds | B6 |

What follows are binders tested against T5, membrane-bound human LIGHT (human, UniProt O43557 1-240) (assay: flow cytometry on expressing cells).
T5 construct: whole, on cells; also called LIGHT/HEK293
T5 sequence (O43557 whole entry): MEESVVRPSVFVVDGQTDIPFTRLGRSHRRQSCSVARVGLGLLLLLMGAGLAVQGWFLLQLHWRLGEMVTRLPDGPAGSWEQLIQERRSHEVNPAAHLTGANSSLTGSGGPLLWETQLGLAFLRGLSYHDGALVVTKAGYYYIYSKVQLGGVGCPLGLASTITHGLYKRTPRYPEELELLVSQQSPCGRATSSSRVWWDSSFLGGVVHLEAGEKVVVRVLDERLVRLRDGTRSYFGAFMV
Method in brief: as §4

| binding result | Binder |
| --- | --- |
| binds | B1 |
| binds | B2 |
| binds | B3 |
| binds | B4 |
| binds | B5 |
| binds | B6 |

— patent US20220340642A1 (Kyowa Kirin, published 2022)
